For one data set, the target named is TFAP-2α (human, UniProt P05549 1-437). The data set is described as follows: EMSA.
Another data set addresses CEBPβ T167D (mouse, UniProt P28033-3 1-275, T167D). The data set can be described thus: EMSA. (Mobility shift assays separate free from complexed probe on a gel.)

Chain of CEBPβ T167D (P28033 22-296 T188D): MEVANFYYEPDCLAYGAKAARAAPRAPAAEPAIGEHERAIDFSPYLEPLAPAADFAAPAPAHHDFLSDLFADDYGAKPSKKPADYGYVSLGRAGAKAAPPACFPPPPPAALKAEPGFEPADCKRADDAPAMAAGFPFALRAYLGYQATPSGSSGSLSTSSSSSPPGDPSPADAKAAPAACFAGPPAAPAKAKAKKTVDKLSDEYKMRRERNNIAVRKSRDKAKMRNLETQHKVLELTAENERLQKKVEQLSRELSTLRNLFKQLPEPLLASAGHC
Chain of TFAP-2α (P05549 whole entry): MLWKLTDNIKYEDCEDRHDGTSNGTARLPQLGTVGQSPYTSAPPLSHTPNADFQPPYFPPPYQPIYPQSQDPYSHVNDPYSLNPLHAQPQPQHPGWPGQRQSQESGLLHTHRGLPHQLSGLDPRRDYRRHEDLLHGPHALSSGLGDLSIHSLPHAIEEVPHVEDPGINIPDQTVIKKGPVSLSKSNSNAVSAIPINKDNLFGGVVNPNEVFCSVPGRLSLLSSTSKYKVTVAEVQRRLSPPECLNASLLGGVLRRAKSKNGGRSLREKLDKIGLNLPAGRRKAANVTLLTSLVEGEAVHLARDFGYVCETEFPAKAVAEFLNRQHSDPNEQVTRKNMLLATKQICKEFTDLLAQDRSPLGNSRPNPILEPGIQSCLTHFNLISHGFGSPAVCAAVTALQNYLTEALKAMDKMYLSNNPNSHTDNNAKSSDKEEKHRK

B1: NRCAM-DNA (dsDNA)
DNA 1: GATCCATTACTTCTGAAACAGATGACTCCCAGCAGCTGCTGCCTGTGGCCCACAGGGCTTCCTGCCCTGCATGACAGCTGCACATCACATCCTGTGGTCATACTACTTCAGCCGCTTCTACGGCCAGATACAAAAGTGGGTGGGGAACATAGGCAAGGGATC
DNA 2: GATCCCTTGCCTATGTTCCCCACCCACTTTTGTATCTGGCCGTAGAAGCGGCTGAAGTAGTATGACCACAGGATGTGATGTGCAGCTGTCATGCAGGGCAGGAAGCCCTGTGGGCCACAGGCAGCAGCTGCTGGGAGTCATCTGTTTCAGAAGTAATGGATC
B1: the binding result in the data set with TFAP-2α is “binds”.

B2: CX3CR1-DNA (dsDNA)
DNA 1: GATCCGCAGGGCCTCTCGGCTGCTGATCTTCAGCTGGTTGCTGAGAGTTGCAGCATTGCTGAGTCTTAGCAATGGATACTTCCCGATTCCCCTCACAAAAATAGGTCAGTCTGTCTGGCTAGTTCTGTACTTGCAGACACAGGGCATGTGGGGTTCCGGATC
DNA 2: GATCCGGAACCCCACATGCCCTGTGTCTGCAAGTACAGAACTAGCCAGACAGACTGACCTATTTTTGTGAGGGGAATCGGGAAGTATCCATTGCTAAGACTCAGCAATGCTGCAACTCTCAGCAACCAGCTGAAGATCAGCAGCCGAGAGGCCCTGCGGATC
As for B2, the binding result with CEBPβ T167D was “binds”.

Values taken from PMC6731145.
